This experiment has as its target T1, recombinant human TIGIT (human, UniProt Q495A1 22-141, limits assumed).
T1 construct: recombinant human TIGIT used in Carterra SPR; also called hTIGIT
T1 sequence (looked up): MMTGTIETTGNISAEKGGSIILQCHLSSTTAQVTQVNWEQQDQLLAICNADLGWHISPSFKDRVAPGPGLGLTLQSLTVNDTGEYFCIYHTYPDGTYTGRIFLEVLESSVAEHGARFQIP
As to the kind of experiment: SPR Carterra, average. As to the method: Binding affinities of VHH-Fc proteins to recombinant human TIGIT were measured by SPR using a Carterra instrument (Table 10A). […] Average values reported from measurements from 1-2 samples.

Changes are numbered by the printed parent chain.

Usually Kd stands for the constant that tells how readily two partners part at equilibrium. Broadly, the koff is the first-order rate constant of dissociation. The term kon denotes the rate constant with which the complex forms.

B1: TIGIT-SC84 (Fc fusion)
VHH: EVQLVESGGGLVQPGGSLRLSCAASGGTFTIYPMGWFRQAPGKEREWVAGINEYGGRYADSVKGRFTISADNSKNTAYLQMNSLKPEDTAVYYCARDLNAMGDAYDIWGQGTLVTVSS
notes: VHH-Fc fusion in assay
On to B1, for which the Kd was not above 3.15 nM, the koff was not above 1e-05 s⁻¹ and the kon was determined as 3180 M⁻¹ s⁻¹.

B2: TIGIT-SC117 (Fc fusion)
VHH: EVQLVESGGGLVQPGGSLRLSCAASGNTFSGGFMGWFRQAPGKEREWVASVLRGGYTWYADSVKGRFTISADNSKNTAYLQMNSLKPEDTAVYYCDAADYWGQGTLVTVSS
notes: VHH-Fc fusion in assay
As for B2, the Kd is 9.63 nM, the koff was 0.0012 s⁻¹ and the kon was found to be 125000 M⁻¹ s⁻¹.

B3: TIGIT-SC116 (Fc fusion)
VHH: B2 VHH with N27F, G31P, G32S, F33W
notes: VHH-Fc fusion in assay
As for B3, the Kd is 4.08 nM, the koff was 0.000696 s⁻¹ and the kon amounted to 209000 M⁻¹ s⁻¹.

B4: TIGIT-SC115 (Fc fusion)
VHH: B2 VHH with D96A, A97G, A98T, D99G, Y100L
notes: VHH-Fc fusion in assay
Consider B4, for which the dissociation constant Kd is 8.42 nM, the koff stood at 0.00241 s⁻¹ and the kon came out at 262000 M⁻¹ s⁻¹.

B5: TIGIT-SC57 (Fc fusion)
VHH: B2 VHH with D96T, A97T, A98Y, D99R, Y100G
notes: VHH-Fc fusion in assay
As for B5, the Kd was found to be 25.2 nM, the koff stood at 0.00511 s⁻¹ and the kon amounted to 149000 M⁻¹ s⁻¹.

B6: TIGIT-SC46 (Fc fusion)
VHH: EVQLVESGGGLVQPGGSLRLSCAASGRTFSNYVMGWFRQAPGKERELVASISSFGSTYYADSVKGRFTISADNSKNTAYLQMNSLKPEDTAVYYCARSGGFLSDWGQGTLVTVSS
notes: VHH-Fc fusion in assay
For B6, the Kd was determined as 4.45 nM, the koff amounted to 0.00416 s⁻¹ and the kon was found to be 1.01e+06 M⁻¹ s⁻¹.

B7: TIGIT-SC24 (Fc fusion)
VHH: EVQLVESGGGLVQPGGSLRLSCAASGFTFDRSWMGWFRQAPGKEREVVASITSGGSTYYADSVKGRFTISADNSKNTAYLQMNSLKPEDTAVYYCAADVWYGSTWRNWGQGTLVTVSS
notes: VHH-Fc fusion in assay
B7: the Kd amounted to 3.08 nM, the koff was 0.000894 s⁻¹ and the kon came to 506000 M⁻¹ s⁻¹.

B8: TIGIT-SC158 (Fc fusion)
VHH: EVQLVESGGGLVQPGGSLRLSCAASGFTFSPSWMGWFRQAPGKEREWVASVLRGGYTWYADSVKGRFTISADNSKNTAYLQMNSLKPEDTAVYYCAREGRSSSPWFDPWGQGTLVTVSS
notes: VHH-Fc fusion in assay
As to B8, the Kd is 143 nM, the off-rate (koff) stood at 0.00154 s⁻¹ and the kon was determined as 18200 M⁻¹ s⁻¹.

B9: TIGIT-SC159 (Fc fusion)
VHH: B8 VHH with S30D, P31R
notes: VHH-Fc fusion in assay
With B9, the Kd worked out at 14.6 nM, the koff was found to be 0.00144 s⁻¹ and the kon was 92000 M⁻¹ s⁻¹.

B10: TIGIT-SC25 (Fc fusion)
VHH: EVQLVESGGGLVQPGGSLRLSCAASGNTFSGGFMGWFRQAPGKEREWVASVLRGGYTWYADSVKGRFTISADNSKNTAYLQMNSLKPEDTAVYYCTTVGYGDYWGQGTLVTVSS
notes: VHH-Fc fusion in assay
In the case of B10, the dissociation constant (Kd) turned out to be 22.5 nM, the koff was 0.00174 s⁻¹ and the kon turned out to be 77200 M⁻¹ s⁻¹.

B11: TIGIT-SC191 (Fc fusion)
VHH: EVQLVESGGGLVQPGGSLRLSCAASGFVFSSDWMGWFRQAPGKEREWVASVLRGGYTWYADSVKGRFTISADNSKNTAYLQMNSLKPEDTAVYYCARGDSMDVWGQGTLVTVSS
notes: VHH-Fc fusion in assay
With B11, the Kd was found to be 401 nM, the koff turned out to be 0.125 s⁻¹ and the on-rate constant (kon) stood at 313000 M⁻¹ s⁻¹.

B12: TIGIT-SC195 (Fc fusion)
VHH: B11 VHH with V28A, D99E, S100G, M101F, V103Y
For B12, the Kd came to 478 nM, the koff was 0.142 s⁻¹ and the kon was 296000 M⁻¹ s⁻¹.

B13: TIGIT-SC198 (Fc fusion)
VHH: B11 VHH with V28T, S31P, D32S, W47Y, R97S, G98E, D99G, S100D, M101P, V103Y
notes: VHH-Fc fusion in assay
For B13, the equilibrium dissociation constant (Kd) was found to be 27.6 nM, the koff came to 0.00285 s⁻¹ and the kon came to 103000 M⁻¹ s⁻¹.

B14: TIGIT-SC171 (Fc fusion)
VHH: B11 VHH with V28T, S30D, S31R, D32S, R97T, G98E, D99R, S100R, M101L, D102G
notes: VHH-Fc fusion in assay
Take B14: the Kd came to 51 nM, the koff was determined as 0.00441 s⁻¹ and the kon stood at 90200 M⁻¹ s⁻¹.

B15: TIGIT-SC42 (Fc fusion)
VHH: B10 VHH with S50T, T96A, T97S, V98G, Y100F, G101L, D102A, Y103S
notes: VHH-Fc fusion in assay
With B15, the Kd turned out to be 1400 nM, the koff came to 0.197 s⁻¹ and the kon was determined as 141000 M⁻¹ s⁻¹.

B16: TIGIT-SC113 (Fc fusion)
VHH: EVQLVESGGGLVQPGGSLRLSCAASGFTLNDYAMGWFRQAPGKERELVAWIARYDGSTLYADSVKGRFTISADNSKNTAYLQMNSLKPEDTAVYYCTWGDGYNLGAFDIWGQGTLVTVSS
notes: VHH-Fc fusion in assay
In the case of B16, the Kd was found to be 1.88 nM, the koff was found to be 0.000483 s⁻¹ and the kon was determined as 257000 M⁻¹ s⁻¹.

B17: TIGIT-SC169 (Fc fusion)
VHH: B16 VHH with W98T, G99E, D100L, G101R, Y102W, N103E, G105Q, A106Q, F107P, I109Y
notes: VHH-Fc fusion in assay
Regarding B17, the Kd was determined as 978 nM, the koff was found to be 0.206 s⁻¹ and the kon amounted to 211000 M⁻¹ s⁻¹.

B18: TIGIT-SC112 (Fc fusion)
VHH: B16 VHH with F27R, N30R, D31R, A33V, W50A, A52D, R53W, Y54S, D55G, T58A
notes: VHH-Fc fusion in assay
For the molecule B18, the Kd turned out to be 13.2 nM, the koff was 0.00393 s⁻¹ and the kon was determined as 297000 M⁻¹ s⁻¹.

B19: TIGIT-SC134 (Fc fusion)
VHH: EVQLVESGGGLVQPGGSLRLSCAASGFTLENNMMGWFRQAPGKEREFVAAISASGTLRAYADSVKGRFTISADNSKNTAYLQMNSLKPEDTAVYYCARWYRVNNWSPGYYYYMDVWGQGTLVTVSS
notes: VHH-Fc fusion in assay
Regarding B19, the Kd was determined as 1.47 nM, the koff came out at 8.98e-05 s⁻¹ and the kon was found to be 60900 M⁻¹ s⁻¹.

B20: TIGIT-SC51 (Fc fusion)
VHH: EVQLVESGGGLVQPGGSLRLSCAASGRTEANYAMGWFRQAPGKEREFVAAISWDGGATAYADSVKGRFTISADNSKNTAYLQMNSLKPEDTAVYYCGDYEGHWGQGTLVTVSS
notes: VHH-Fc fusion in assay
Regarding B20, the equilibrium dissociation constant (Kd) was found to be 5.15 nM, the koff worked out at 0.00981 s⁻¹ and the kon turned out to be 2.1e+06 M⁻¹ s⁻¹.

B21: TIGIT-SC68 (Fc fusion)
VHH: B20 VHH with R27H, E29F, A30R, N31G, F47A, D54S, G56D, A57N, A59Y
notes: VHH-Fc fusion in assay
For the molecule B21, the Kd is 5.49 nM, the off-rate constant (koff) turned out to be 0.0103 s⁻¹ and the kon came to 1.87e+06 M⁻¹ s⁻¹.

B22: TIGIT-SC54 (Fc fusion)
VHH: EVQLVESGGGLVQPGGSLRLSCAASGFSFDDYVMGWFRQAPGKERELVAVIVGEAITRYADSVKGRFTISADNSKNTAYLQMNSLKPEDTAVYYCARRGGSGRAFDIWGQGTLVTVSS
notes: VHH-Fc fusion in assay
For the molecule B22, the Kd was 3.71 nM, the koff amounted to 0.00982 s⁻¹ and the kon amounted to 3e+06 M⁻¹ s⁻¹.

B23: TIGIT-SC13 (Fc fusion)
VHH: EVQLVESGGGLVQPGGSLRLSCAASGRTFSFMGWFRQAPGKEREWVASVLRGGYTWYADSVKGRFTISADNSKNTAYLQMNSLKPEDTAVYYCATESMDYWGQGTLVTVSS
notes: VHH-Fc fusion in assay
For the molecule B23, the Kd was 3.08 nM, the koff came out at 0.000199 s⁻¹ and the kon was 60100 M⁻¹ s⁻¹.

B24: TIGIT-SC121 (Fc fusion)
VHH: EVQLVESGGGLVQPGGSLRLSCAASGFTFSPSWMGWFRQAPGKEREWVASVLRGGYTWYADSVKGRFTISADNSKNTAYLQMNSLKPEDTAVYYCTTEGFDPWGQGTLVTVSS
notes: VHH-Fc fusion in assay
On to B24, for which the dissociation constant (Kd) was found to be 4.68 nM, the off-rate (koff) came to 0.00112 s⁻¹ and the kon was 344000 M⁻¹ s⁻¹.

B25: TIGIT-SC98 (Fc fusion)
VHH: B24 VHH with F27N, P31G, S32G, W33F
notes: VHH-Fc fusion in assay
In the case of B25, the Kd amounted to 5.79 nM, the koff came out at 0.00137 s⁻¹ and the kon came out at 237000 M⁻¹ s⁻¹.

B26: TIGIT-SC60 (Fc fusion)
VHH: B24 VHH with T96A, T97R, E98D, G99D, F100L, P102Y
notes: VHH-Fc fusion in assay
As for B26, the Kd amounted to 84.6 nM, the dissociation rate constant (koff) came out at 0.00184 s⁻¹ and the kon was 21800 M⁻¹ s⁻¹.

B27: TIGIT-SC111 (Fc fusion)
VHH: B24 VHH with F27D, P31G, S32G, W33F, T97R, E98G, F100M, P102V
notes: VHH-Fc fusion in assay
For the molecule B27, the Kd worked out at 4.37 nM, the off-rate constant (koff) was determined as 0.00743 s⁻¹ and the kon came to 1.7e+06 M⁻¹ s⁻¹.

B28: TIGIT-SC187 (Fc fusion)
VHH: B24 VHH with E98D, G99S, F100L, D101P, P102G
notes: VHH-Fc fusion in assay
With B28, the Kd turned out to be 17.2 nM, the koff came to 0.000586 s⁻¹ and the kon was 34000 M⁻¹ s⁻¹.

B29: TIGIT-SC188 (Fc fusion)
VHH: B24 VHH with F27N, P31G, S32G, W33F, E98D, G99S, F100L, D101P, P102G
notes: VHH-Fc fusion in assay
Regarding B29, the Kd stood at 77.1 nM, the koff came to 0.00309 s⁻¹ and the association rate constant (kon) is 42500 M⁻¹ s⁻¹.

B30: TIGIT-SC20 (Fc fusion)
VHH: EVQLVESGGGLVQPGGSLRLSCAASGNTFSGGFMGWFRQAPGKEREWVASVLRGGYTWYADSVKGRFTISADNSKNTAYLQMNSLKPEDTAVYYCATPRGYWGQGTLVTVSS
notes: VHH-Fc fusion in assay
Take B30: the Kd was 2.7 nM, the koff was determined as 0.0007 s⁻¹ and the kon is 260000 M⁻¹ s⁻¹.

B31: TIGIT-SC31 (Fc fusion)
VHH: EVQLVESGGGLVQPGGSLRLSCAASGRAFESYAMGWFRQAPGKERELVATIGWSGTDYADSVKGRFTISADNSKNTAYLQMNSLKPEDTAVYYCAKGYTSGLSDWGQGTLVTVSS
notes: VHH-Fc fusion in assay
For B31, the Kd amounted to 4.74 nM, the koff came out at 0.0062 s⁻¹ and the kon came out at 1.31e+06 M⁻¹ s⁻¹.
